# Read-outs that look alike come from different tables or passages of the source.
# What was measured:
# HLA-A2.1 = target: T1, HLA-A2.1 (Homo sapiens, UniProt P04439, D140Y/D185E/D98H/E176V/E277Q/G131W/G231S/I119V/I121R/I166T/I218V/L300P/L318F/N151K/N90K/P208A/P217A/Q86G/Q94H/R138H/R169H/T345S); format: cell-based
# T1 construct: endogenous in cells; host or cells: 174CEM.T2
# Procedure: Of all peptides a dilution of 1 mg/ml in 0.9% NaCl was made.
# 174CEM.T2 cells were cultured in Iscovel's modified Dulbecco's medium (Biochrom KG Seromed Berlin, Germany: F0465) supplemented with 100 IU/ml penicillin (Biocades Pharma, Leiderdorp, The Netherlands), 100 μg/ml kanamycin (Sigma St. Louis, USA:K-0254), 2 mM glutamine (ICN Biomedicals Inc. Costa Mesa, Calif., USA:15-801-55) and 10% fetal calf serum (FCS, Hyclone Laboratories Inc. Logan, Utah, USA:A-1115-L). Cells were cultured at a density of 2.5×10^5/ml during 3 days at 37° C., 5% CO2 in humified air.
# 174CEM.T2 cells were washed twice in culture medium without FCS and put in serum-free culture medium to a density of 2×10^6 cells/ml. Of this suspension 40 μl was put into a V bottomed 96 well plate (Greiner GmbH, Frickenhausen, Germany: 651101) together with 10 μl of the individual peptide dilutions (of 1 mg/ml). The end concentration is 200 μg/ml peptide with 8×10^4 174CEM.T2 cells. This solution was gently agitated for 3 minutes after which an incubation time of 16 hours at 37° C., 5% CO2 in humified air took place. Then cells were washed once with 100 μl 0.9% NaCl, 0.5% bovine serum albumin (Sigma St. Louis, USA: A-7409), 0.02% NaN3 (Merck Darmstadt, Germany:822335). After a centrifuge round of 1200 rpm the pellet was resuspended in 50 μl of saturating amounts of HLA-A2.1 specific mouse monoclonal antibody BB7.2 for 30 minutes at 4° C. Then cells were washed twice and incubated for 30 minutes with F(ab)2 fragments of goat anti-mouse IgG that had been conjugated with […] (Tago Inc Burlingame, Calif., USA: 4350) in a dilution of 1:40 and a total volume of 25 μl.
# After the last incubation, cells were washed twice and fluorescence was measured at 488 nanometer on a FACScan flow-cytometer (Becton Dickinson, Franklin Lakes, N.J., USA).
# The 174CEM.T2 cell line expresses “empty” and unstable HLA-A2.1 molecules that can be stabilized when a peptide is binding to the peptide presenting groove of these molecules. […] This leads to an increase in cell surface expression of the HLA-A2.1 molecule.
# With background fluorescence level (without adding peptides) set on a Fluorescence Index level of 0, binding of a peptide was regarded positive when the level of fluorescence was ≧0.5.
# HLA-A11.2 = assay: Immunochemical peptide-MHC binding assay, purified HLA-A11.2, radiolabeled probe […]; parameters: species or system human; conditions: for binding ratio to standard: IC50 of standard divided by IC50 of tested peptide, cysteines synthesized as alanine
# Source text: (§1) The method utilizes purified class I molecules and radiolabeled synthetic probes based on consensus peptides. Competitor peptides tested for their binding to the class I molecules compete for this binding with the radiolabeled consensus peptides. The HLA-A1, A2.1, A3.2, A11.2, and A24 molecules were isolated from the following cell lines, respectively: the EBV (Eppstein Barr Virus) transformed cell line Steinlin, the EBV transformed cell line JY, the EBV transformed cell line GM3107, the cell line BVR and the EBV transformed cell line KT3. After large scale culture, cells were lysed in NP40 (Fluka Biochemika, Buchs, Switzerland) and the lysate was passed over two pre-columns of inactivated sepharose CL 4B and Prot A Sepharose. Class I molecules were then purified from the cell lysate by affinity chromatography using Prot A Sepharose beads conjugated with B2.23.2 (anti-HLA-B and HLA-C) and anti-human HLA. The lysate was first depleted of B and C molecules by repeated passage over the B2.23.2 column.
# (§2) After two days at 23° C. the percent of MHC-bound radioactivity was measured by size exclusion chromatography on a TSK2000 gel filtration as described by Sette et al. (1992).
# (§3) Probe peptides were iodinated by using the Chloramine T method described by Buus et al. (1987). The sequences of the probe peptides used for the aforementioned HLA molecules were […] (SEQ ID NO:76) for A1, […] (SEQ ID NO:77) for A2.1, […] (SEQ ID NO:78) for A3.2, […] (SEQ ID NO:79) for A11.2, and […] (SEQ ID NO:80) for A24.
# (§4) Each competitor peptide was tested in two to four completely independent experiments. Since cysteine containing peptides are susceptible to (air) oxidation during synthesis and handling, these peptides were synthesized with an alanine instead of a cysteine.
# HLA-A3.2 = target: T2, HLA-A3.2 (Homo sapiens, UniProt P04439); format: binding
# T2 construct: endogenous in cells; host or cells: EBV transformed cell line GM3107 (protein purified from NP40 lysate)
# Source text: as §1, §2, §3, §4
# [1] = HPV16 peptides, 200 μg/ml peptide, 16 hours, 174CEM.T2 cells
# [2] = HPV16 peptides, 200 μg/ml peptide, 16 hours, 174CEM.T2 cells, background set on 0, binding positive when ≧0.5
# [3] = HLA-A3.2, IC50 of standard divided by IC50 of tested peptide, cysteines synthesized as alanine
# [4] = HPV18 peptides, 200 μg/ml peptide, 16 hours, 174CEM.T2 cells
# [5] = HPV18 peptides, 200 μg/ml peptide, 16 hours, 174CEM.T2 cells, background set on 0, binding positive when ≧0.5
# T2 sequence (P04439 25-365): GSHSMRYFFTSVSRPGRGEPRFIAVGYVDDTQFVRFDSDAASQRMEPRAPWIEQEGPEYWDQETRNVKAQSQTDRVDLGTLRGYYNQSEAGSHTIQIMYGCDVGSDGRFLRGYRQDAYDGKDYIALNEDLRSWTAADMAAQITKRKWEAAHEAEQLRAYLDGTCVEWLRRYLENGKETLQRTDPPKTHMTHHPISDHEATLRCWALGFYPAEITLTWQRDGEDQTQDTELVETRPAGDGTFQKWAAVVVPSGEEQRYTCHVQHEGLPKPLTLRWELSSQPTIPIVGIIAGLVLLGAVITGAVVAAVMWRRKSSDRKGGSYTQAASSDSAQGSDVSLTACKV
# T2 sequence (P61769 21-119, further chain): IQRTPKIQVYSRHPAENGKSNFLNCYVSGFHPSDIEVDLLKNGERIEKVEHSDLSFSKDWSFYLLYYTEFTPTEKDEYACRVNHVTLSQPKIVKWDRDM
compound,measurement,setting,value
CC[C@H](C)[C@H](NC(=O)CNC(=O)[C@H](CC(C)C)NC(=O)[C@@H](N)[C@@H](C)O)C(=O)N[C@H](C(=O)N[C@@H](CS)C(=O)N1CCC[C@H]1C(=O)N[C@H](C(=O)N[C@@H](CS)C(=O)O)[C@@H](C)CC)C(C)C [HPV16 peptide 18],MF (mean HLA-A2.1 fluorescence),HLA-A2.1; [1],227.8
same,FI (Fluorescence Index),HLA-A2.1; [2],2.5
AMFQDPQER [residues 7-15 of HPV16 protein E6],binding ratio to standard,HLA-A11.2,0.8400
AVCDKCLKF [residues 68-76 of HPV16 protein E6],binding ratio to standard,HLA-A3.2; [3],0.0056
same,binding ratio to standard,HLA-A11.2,0.0037
AVDLYHFLK [reference compound],IC50,"HLA-A11.2; read-out: 50% inhibition dose for the probe, unlabeled probe peptide",9 nM
CCKCDSTLR [residues 58-66 of HPV16 protein E7],binding ratio to standard,HLA-A3.2; [3],0.0016
same,binding ratio to standard,HLA-A11.2,0.0110
CCRSSRTRR [residues 146-154 of HPV16 protein E6],binding ratio to standard,HLA-A3.2; [3],0.0020
CMSCCRSSR [residues 143-151 of HPV16 protein E6],binding ratio to standard,HLA-A3.2; [3],0.1800
same,binding ratio to standard,HLA-A11.2,0.0084
"DTLEKLTNT [HPV18 peptide 8, residues 88-96 of HPV18 protein E6]",MF (mean HLA-A2.1 fluorescence),HLA-A2.1; [4],238.2
same,FI (Fluorescence Index),HLA-A2.1; [5],0.7
"EITCVYCKT [HPV18 peptide 4, residues 29-37 of HPV18 protein E6]",MF (mean HLA-A2.1 fluorescence),HLA-A2.1; [4],206.0
same,FI (Fluorescence Index),HLA-A2.1; [5],0.5
"ELQTTIHDI [HPV16 peptide 4, residues 25-33 of HPV16 protein E6]",MF (mean HLA-A2.1 fluorescence),HLA-A2.1; [1],108.0
same,FI (Fluorescence Index),HLA-A2.1; [2],0.6
ELTEVFEFA [HPV18 peptide 6],FI (Fluorescence Index),HLA-A2.1,1.1
same,MF (mean HLA-A2.1 fluorescence),HLA-A2.1,289.0
"FAFKDLFVV [HPV18 peptide 7, residues 47-55 of HPV18 protein E6]",MF (mean HLA-A2.1 fluorescence),HLA-A2.1; [4],462.9
same,FI (Fluorescence Index),HLA-A2.1; [5],2.3
"FQQLFLNTL [HPV18 peptide 11, residues 86-94 of HPV18 protein E7]",MF (mean HLA-A2.1 fluorescence),HLA-A2.1; [4],244.5
same,FI (Fluorescence Index),HLA-A2.1; [5],0.8
"GTLGIVCPI [HPV16 peptide 17, residues 85-93 of HPV16 protein E7]",MF (mean HLA-A2.1 fluorescence),HLA-A2.1; [1],216.1
same,FI (Fluorescence Index),HLA-A2.1; [2],2.3
HLDKKQRFH [residues 125-133 of HPV16 protein E6],binding ratio to standard,HLA-A3.2; [3],0.4400
HYNIVTFCC [residues 51-59 of HPV16 protein E7],binding ratio to standard,HLA-A3.2; [3],0.0260
same,binding ratio to standard,HLA-A11.2,0.0010
"IHDIILECV [HPV16 peptide 7, residues 30-38 of HPV16 protein E6]",MF (mean HLA-A2.1 fluorescence),HLA-A2.1; [1],150.7
same,FI (Fluorescence Index),HLA-A2.1; [2],1.3
IILECVYCK [residues 33-41 of HPV16 protein E6],binding ratio to standard,HLA-A3.2; [3],1.5000
same,binding ratio to standard,HLA-A11.2,6.7000
ISEYRHYCY [residues 80-88 of HPV16 protein E6],binding ratio to standard,HLA-A3.2; [3],0.0064
same,binding ratio to standard,HLA-A11.2,0.4300
KCDSTLRLC [residues 60-68 of HPV16 protein E7],binding ratio to standard,HLA-A3.2; [3],0.0012
KFYSKISEY [residues 75-83 of HPV16 protein E6],binding ratio to standard,HLA-A3.2,0.0100
"KLPDLCTEL [HPV18 peptide 1, residues 13-21 of HPV18 protein E6]",MF (mean HLA-A2.1 fluorescence),HLA-A2.1; [4],439.3
same,FI (Fluorescence Index),HLA-A2.1; [5],2.1
"KTVLELTEV [HPV18 peptide 5, residues 36-44 of HPV18 protein E6]",MF (mean HLA-A2.1 fluorescence),HLA-A2.1; [4],467.5
same,FI (Fluorescence Index),HLA-A2.1; [5],2.3
"LCTELQTTI [HPV16 peptide 3, residues 22-30 of HPV16 protein E6]",MF (mean HLA-A2.1 fluorescence),HLA-A2.1; [1],113.6
same,FI (Fluorescence Index),HLA-A2.1; [2],0.7
"LFLNTLSFV [HPV18 peptide 13, residues 89-97 of HPV18 protein E7]",MF (mean HLA-A2.1 fluorescence),HLA-A2.1; [4],360.3
same,FI (Fluorescence Index),HLA-A2.1; [5],1.6
LLMGTLGIV [HPV16 peptide 16],FI (Fluorescence Index),HLA-A2.1,0.8
same,MF (mean HLA-A2.1 fluorescence),HLA-A2.1,118.8
"LSFVCPWCA [HPV18 peptide 14, residues 94-102 of HPV18 protein E7]",MF (mean HLA-A2.1 fluorescence),HLA-A2.1; [4],262.0
same,FI (Fluorescence Index),HLA-A2.1; [5],0.9
"LTNTGLYNL [HPV18 peptide 9, residues 93-101 of HPV18 protein E6]",MF (mean HLA-A2.1 fluorescence),HLA-A2.1; [4],352.5
same,FI (Fluorescence Index),HLA-A2.1; [5],1.5
"PLCDLLIRC [HPV16 peptide 10, residues 102-110 of HPV16 protein E6]",MF (mean HLA-A2.1 fluorescence),HLA-A2.1; [1],204.8
same,FI (Fluorescence Index),HLA-A2.1; [2],2.1
"QLCTELQTT [HPV16 peptide 2, residues 21-29 of HPV16 protein E6]",MF (mean HLA-A2.1 fluorescence),HLA-A2.1; [1],211.9
same,FI (Fluorescence Index),HLA-A2.1; [2],2.2
"QLFLNTLSF [HPV18 peptide 12, residues 88-96 of HPV18 protein E7]",MF (mean HLA-A2.1 fluorescence),HLA-A2.1; [4],258.2
same,FI (Fluorescence Index),HLA-A2.1; [5],0.8
QQYNKPLCD [residues 97-105 of HPV16 protein E6],binding ratio to standard,HLA-A3.2; [3],0.0045
RHYCYSLYG [residues 84-92 of HPV16 protein E6],binding ratio to standard,HLA-A3.2; [3],0.0036
"RLCVQSTHV [HPV16 peptide 14, residues 66-74 of HPV16 protein E7]",MF (mean HLA-A2.1 fluorescence),HLA-A2.1; [1],250.0
same,FI (Fluorescence Index),HLA-A2.1; [2],2.8
"SLQDIEITC [HPV18 peptide 2, residues 24-32 of HPV18 protein E6]",MF (mean HLA-A2.1 fluorescence),HLA-A2.1; [4],243.9
same,FI (Fluorescence Index),HLA-A2.1; [5],0.7
SLYGTTLEQ [residues 89-97 of HPV16 protein E6],binding ratio to standard,HLA-A3.2; [3],0.0080
TGRCMSCCR [residues 140-148 of HPV16 protein E6],binding ratio to standard,HLA-A11.2,0.0012
"TIHDIILEC [HPV16 peptide 6, residues 29-37 of HPV16 protein E6]",MF (mean HLA-A2.1 fluorescence),HLA-A2.1; [1],184.5
same,FI (Fluorescence Index),HLA-A2.1; [2],1.8
"TLEDLLMGT [HPV16 peptide 15, residues 78-86 of HPV16 protein E7]",MF (mean HLA-A2.1 fluorescence),HLA-A2.1; [1],182.8
same,FI (Fluorescence Index),HLA-A2.1; [2],1.8
TLQDIVLHL [HPV18 peptide 10],FI (Fluorescence Index),HLA-A2.1,2.7
same,MF (mean HLA-A2.1 fluorescence),HLA-A2.1,519.6
TTLEQQYNK [residues 93-101 of HPV16 protein E6],binding ratio to standard,HLA-A3.2; [3],0.0780
VCPICSQKP [residues 90-98 of HPV16 protein E7],binding ratio to standard,HLA-A11.2,0.0012
"YMLDLQPET [HPV16 peptide 12, residues 11-19 of HPV16 protein E7]",MF (mean HLA-A2.1 fluorescence),HLA-A2.1; [1],283.9
same,FI (Fluorescence Index),HLA-A2.1; [2],3.3

# — patent publication US7364741B1, “Peptides of human Papilloma virus for use in human T cell response inducing compositions” (priority 1992, dated 2008)
